The target of the assay is T1, HA-tagged Pyk1 (HA-Pyk1) (S. cerevisiae, UniProt P00549 1-500).
T1 construct: Pyk1 (Cdc19), pyruvate kinase of S. cerevisiae; also called pRS313-HA-PYK1; source: S. cerevisiae (pyk1∆ tsa1/2∆ or pyk1∆ cells) carrying pRS313-HA-PYK1, in lysate (whole cell extract)
T1 sequence (looked up): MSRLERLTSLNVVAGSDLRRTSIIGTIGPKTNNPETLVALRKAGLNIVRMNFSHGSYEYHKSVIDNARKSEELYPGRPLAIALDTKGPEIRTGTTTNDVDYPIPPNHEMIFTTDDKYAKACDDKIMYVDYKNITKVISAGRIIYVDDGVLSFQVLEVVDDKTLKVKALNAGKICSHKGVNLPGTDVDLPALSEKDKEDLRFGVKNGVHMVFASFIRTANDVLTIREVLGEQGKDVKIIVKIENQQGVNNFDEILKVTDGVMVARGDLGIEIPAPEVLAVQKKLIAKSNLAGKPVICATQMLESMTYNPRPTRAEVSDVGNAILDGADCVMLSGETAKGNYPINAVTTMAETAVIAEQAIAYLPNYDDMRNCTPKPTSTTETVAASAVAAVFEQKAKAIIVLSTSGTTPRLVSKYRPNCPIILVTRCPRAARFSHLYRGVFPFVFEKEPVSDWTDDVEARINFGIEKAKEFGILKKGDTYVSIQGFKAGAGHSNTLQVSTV
Briefly: co-IP; HA-Pyk1 precipitated with anti-HA antibody beads from yeast whole cell extract (400 μg; IP buffer: 100 mM MES pH 7.0, 200 mM KCl, 15 mM MgCl2, 5% glycerol, 0.15% NP-40, 50 mM NEM; 4 °C, 3 h); immunoblot with anti-Tsa1, anti-Pyk1 and anti-Prx-SO2/SO3; cells from glucose (SDM) or ethanol (SEM -Trp) medium, exponential, diauxic shift or early stationary phase, with or without 1, 3 or 10 mM H2O2. To be noted: partners not purified. Background: In western blotting, separated proteins are transferred to a membrane and probed.

Changes are numbered by the printed parent chain.

B1: Tsa1^C48T (enzyme, S. cerevisiae, UniProt P34760 1-196, looked up)
chain: MVAQVQKQAPTFKKTAVVDGVFDEVSLDKYKGKYVVLAFIPLAFTFVTPTEIIAFSEAAKKFEEQGAQVLFASTDSEYSLLAWTNIPRKEGGLGPINIPLLADTNHSLSRDYGVLIEEEGVALRGLFIIDPKGVIRHITINDLPVGRNVDEALRLVEAFQWTDKNGTVLPCNWTPGAATIKPTVEDSKEYFEAANK
notes: Tsa1 of S. cerevisiae with the peroxidatic cysteine Cys48 mutated to Thr; source: S. cerevisiae pyk1∆ tsa1/2∆ cells carrying an expression vector (pRS315), in lysate
With B1, the “fold decrease of Pyk1-bound Tsa1 against wild-type Tsa1 (ethanol medium)” value was roughly 3 fold.

B2: Tsa1^C171T (enzyme, S. cerevisiae, UniProt P34760 1-196, looked up)
chain: B1 chain with T48C, C171T
notes: Tsa1 of S. cerevisiae with the resolving cysteine Cys171 mutated to Thr; source: S. cerevisiae tsa1/2Δ cells carrying an expression vector (pRS315), in lysate
As for B2, the “stoichiometry N” value is 8 molecules of Tsa1^C171T for each tetramer of Pyk1.

The values above are taken from article PMC5025857, “Redox-dependent Regulation of Gluconeogenesis by a Novel Mechanism Mediated by a Peroxidatic Cysteine of Peroxiredoxin” (Scientific Reports, 2016).
